Like-named read-outs stand apart in the source and are kept apart here. Each block holds one binder with its values, some of them ahead of it.
B7: mouse Plexin-B1 (20–535)-6xHis (domain or fragment, UniProt Q8CJH3 20-535, looked up)
chain: LRSPLPAAFTANGTHLQHLARDPTTGTLYVGATNFLFQLSPGLQLEAVVSTGPVNDSRDCLPPVIPDECPQAQPTNNPNQLLLVSPEALVVCGSVHQGICELRSLGQIRQLLLRPERPGDTQYVAANDPAVSTVGLVAQGLVGEPLLFVGRGYTSRGVGGGIPPITTRALRPPDPQAAFSYEETAKLAVGRLSEYSHHFVSAFVRGASAYFLFLRRDLKAPSRAFRAYVSRVCLQDQHYYSYVELPLACQGGRYGLIQAAAVATSKEVARGDVLFAAFSSVAPPTVDWPLSASTGASGTSVLCAFPLDEVDQLANYTRDACYTREGRAENGTKVADIAYDVLSDCAQLPVDTPDAFPCGSDHTPSPMVSCVPLEATPILELPGVQLTAVAVTMEDGHTIAFLGDSQGQLHRVYLGPGRSAAPYSKQSIQPGSPVNRDLTFDGTFEHLYVATQTTLVKVPVAPCAQHLDCDSCLAHRDPYCGWCVLLGRCSRRSECSRDQGPEQWLWSFQPELGCLR
notes: mouse Plexin-B1, sema and PSI1 domains (D1-2); For crystallography the N-linked glycans were trimmed to a single N-acetylglucosamine with EndoH; also called mPlexin-B1; mouse Plexin-B1 domains 1 and 2; source: Expi293F, secreted, purified (Excel HisTrap, Superdex 200)

Tests used:
[1] = molecular target: B7
[2] = molecular target: B7; assay: crystal structure; VHH15:mPlexin-B1 complex, EndoH-treated; 8% PEG 8000, 0.1 M sodium citrate pH 5.0, 1% dextran sulphate, 18 °C; conditions: both partners purified
[3] = molecular target: B7; assay: crystal structure; VHH14:VHH15:mPlexin-B1 ternary complex; 15% PEG 6000, 0.1 M sodium citrate pH 5.5, 3% dextran sulphate, 18 °C; conditions: both partners purified
VHH14-Fc [4] = molecular target: T1, VHH14-Fc (huarizo); assay: BLI; supernatants containing VHH-Fcs tested against mouse and human Plexin-B1; conditions: one partner purified
T1 construct: VHH cloned upstream of the Fc of human IgG1 (vector pHCMVi-Script HuIgG1 Fc); source: Expi293F, transfected; culture supernatant, and purified (HiTrap MabSelect, Superdex 200); not shown: Fc (human IgG1), C-terminal, kept

VHH15-Fc [5] = molecular target: T2, VHH15-Fc (huarizo); assay: as above; conditions: one partner purified
T2 construct: VHH cloned upstream of the Fc of human IgG1 (vector pHCMVi-Script HuIgG1 Fc); source: Expi293F, transfected; culture supernatant, and purified (HiTrap MabSelect, Superdex 200); not shown: Fc (human IgG1), C-terminal, kept

VHH15-Fc [6] = molecular target: T2, VHH15-Fc; assay: BLI; Octet RED384, 25 °C, 1× Kinetics buffer; purified VHH-Fc captured on Protein G biosensors, mouse Plexin-B1 in solution (VHH14-Fc: 10-3.75 nM, 1800 s association, 7200 s dissociation; VHH15-Fc: 160-10 nM, 600 s, 510 s); global 1:1 fit; conditions: both partners purified
[7] = molecular target: T3, Recombinant Sema4D (1–677) with C-terminal 6xHis-tag (human, UniProt Q92854 22-677); assay: BLI; competition assay, Octet RED384, 1× Kinetics buffer; biotinylated murine Plexin-B1 on streptavidin biosensors, 10 μg/ml human Sema4D with or without 100 nM VHH-Fc bound beforehand; conditions: both partners purified
T3 construct: signal peptide in the construct; human Sema4D, residues 1-677 cloned in pcDNA5 and expressed as a secreted protein; also called human Sema4D; source: Expi293F, purified as the Plexin-B1 constructs (Excel HisTrap, Superdex 200)
T3 sequence (looked up): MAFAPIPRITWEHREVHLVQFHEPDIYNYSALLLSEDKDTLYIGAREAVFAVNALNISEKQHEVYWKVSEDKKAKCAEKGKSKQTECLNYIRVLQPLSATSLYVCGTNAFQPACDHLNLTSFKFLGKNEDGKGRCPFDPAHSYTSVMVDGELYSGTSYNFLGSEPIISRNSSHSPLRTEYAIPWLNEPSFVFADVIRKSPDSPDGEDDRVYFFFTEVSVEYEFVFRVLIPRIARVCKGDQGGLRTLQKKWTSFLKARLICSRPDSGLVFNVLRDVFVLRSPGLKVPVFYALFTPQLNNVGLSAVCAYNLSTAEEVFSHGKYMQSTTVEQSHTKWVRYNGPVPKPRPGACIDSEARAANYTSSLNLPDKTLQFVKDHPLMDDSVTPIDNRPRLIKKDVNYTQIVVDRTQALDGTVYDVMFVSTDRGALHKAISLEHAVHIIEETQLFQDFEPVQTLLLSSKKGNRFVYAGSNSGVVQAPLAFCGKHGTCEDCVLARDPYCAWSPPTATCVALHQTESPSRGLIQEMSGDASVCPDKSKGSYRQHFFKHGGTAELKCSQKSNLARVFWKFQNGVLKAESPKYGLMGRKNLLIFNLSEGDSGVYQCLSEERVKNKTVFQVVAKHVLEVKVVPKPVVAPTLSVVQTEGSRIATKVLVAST

VHH14-Fc [8] = molecular target: T1, VHH14-Fc; assay: BLI; first phase of the competition assay: 100 nM VHH-Fc on biotinylated murine Plexin-B1 held on streptavidin biosensors; by the order of the results the VHH-Fcs were still in supernatants; conditions: one partner purified
VHH15-Fc [9] = molecular target: T2, VHH15-Fc; assay: as above; conditions: one partner purified

- binding result [1]: binds
B1: VHH16 (VHH)
VHH: QVQLQESGGDLVQAGGSLRLSCEVSGSSFDIYHWAWYRQVPGKEREWVATAYSAGTTHYADSVKGRFTISRDNAKNTVYLQMNSLIPEDTAVYFCNANIYWGRGTQVTVSA

- binding result [1]: binds
B2: VHH13 (VHH)
VHH: QVQLQESGGGLVQAGGSLRLSCVASGFTFSSYAMGWYRRTPGNQQQLVATVSSSGTTYYGDSVKGRFTISRDNAKKTVYLQMNSLKPEDTAVYYCWRIGYWGQGTQVTVSA

- binding result [1]: binds
B3: VHH17 (VHH)
VHH: QVQLQESGGGLVQAGGSLRLSCVAAGIPFSAYAMSWYRQAPGKQRDHIATVSSGGTTYYADSVKGRFTISRDNAKNTVYLQMNSLKPEDTAVYFCNTEFALGNWGQGTQVTVSA

- binding result [2]: binds
B4: VHH15-6xHis (VHH)
VHH: QVQLQESGGGLVQPGGSLRLSCAASGFRLDYYAIGWFRQAPGKEREGVLCISSSGGSINYADSVKGRFTISRDNAKNTVYLQMNSLKPEDTAVYYCGASSYNTQRAECYGMDYWGKGTQVTVSA
notes: VHH15; not shown: His6, C-terminal, kept

- binding result [3]: binds
B5: VHH14-6xHis (VHH)
VHH: QVQLQESGGGLVQAGGSLRLSCAASGFTLGYYAIGWFRQAPGKEREEVSCINASGGSTFYEDSVKGRFTISRDNAKNTVFLQMNRLKPEDTAVYYCAAACEVVAVGYWGQGTQVTVSA
notes: VHH14

- binding result (VHH14-Fc [4]): no binding
- binding result (VHH15-Fc [5]): no binding
B6: human Plexin-B1 (20–535) (domain or fragment, UniProt O43157 20-535, looked up)
chain: LQPLPPTAFTPNGTYLQHLARDPTSGTLYLGATNFLFQLSPGLQLEATVSTGPVLDSRDCLPPVMPDECPQAQPTNNPNQLLLVSPGALVVCGSVHQGVCEQRRLGQLEQLLLRPERPGDTQYVAANDPAVSTVGLVAQGLAGEPLLFVGRGYTSRGVGGGIPPITTRALWPPDPQAAFSYEETAKLAVGRLSEYSHHFVSAFARGASAYFLFLRRDLQAQSRAFRAYVSRVCLRDQHYYSYVELPLACEGGRYGLIQAAAVATSREVAHGEVLFAAFSSAAPPTVGRPPSAAAGASGASALCAFPLDEVDRLANRTRDACYTREGRAEDGTEVAYIEYDVNSDCAQLPVDTLDAYPCGSDHTPSPMASRVPLEATPILEWPGIQLTAVAVTMEDGHTIAFLGDSQGQLHRVYLGPGSDGHPYSTQSIQQGSAVSRDLTFDGTFEHLYVMTQSTLLKVPVASCAQHLDCASCLAHRDPYCGWCVLLGRCSRRSECSRGQGPEQWLWSFQPELGCLQ
notes: human Plexin-B1, sema and PSI1 domains; also called hPlexin-B1; source: Expi293F, secreted, purified (Excel HisTrap, Superdex 200)

Binder: B7
- Kd (VHH15-Fc [6]): 37.5 nM

- binding result [7]: binds
B8: biotinylated mouse Plexin-B1 (20–535)-Avi-6xHis (domain or fragment, UniProt Q8CJH3 20-535, looked up)
chain: LRSPLPAAFTANGTHLQHLARDPTTGTLYVGATNFLFQLSPGLQLEAVVSTGPVNDSRDCLPPVIPDECPQAQPTNNPNQLLLVSPEALVVCGSVHQGICELRSLGQIRQLLLRPERPGDTQYVAANDPAVSTVGLVAQGLVGEPLLFVGRGYTSRGVGGGIPPITTRALRPPDPQAAFSYEETAKLAVGRLSEYSHHFVSAFVRGASAYFLFLRRDLKAPSRAFRAYVSRVCLQDQHYYSYVELPLACQGGRYGLIQAAAVATSKEVARGDVLFAAFSSVAPPTVDWPLSASTGASGTSVLCAFPLDEVDQLANYTRDACYTREGRAENGTKVADIAYDVLSDCAQLPVDTPDAFPCGSDHTPSPMVSCVPLEATPILELPGVQLTAVAVTMEDGHTIAFLGDSQGQLHRVYLGPGRSAAPYSKQSIQPGSPVNRDLTFDGTFEHLYVATQTTLVKVPVAPCAQHLDCDSCLAHRDPYCGWCVLLGRCSRRSECSRDQGPEQWLWSFQPELGCLR
modifications: biotin on the Avi-tag (BirA, in vitro)
notes: the Avi-tag stands between the C terminus of the fragment and the 6xHis-tag; source: Expi293F, secreted, purified as the unmodified version; biotinylated in vitro with BirA

- binding result (VHH14-Fc [8]): binds
- binding result (VHH15-Fc [9]): binds
B9: biotinylated mouse Plexin-B1 (20–535)-Avi-6xHis (domain or fragment, UniProt Q8CJH3 20-535, looked up)
chain: LRSPLPAAFTANGTHLQHLARDPTTGTLYVGATNFLFQLSPGLQLEAVVSTGPVNDSRDCLPPVIPDECPQAQPTNNPNQLLLVSPEALVVCGSVHQGICELRSLGQIRQLLLRPERPGDTQYVAANDPAVSTVGLVAQGLVGEPLLFVGRGYTSRGVGGGIPPITTRALRPPDPQAAFSYEETAKLAVGRLSEYSHHFVSAFVRGASAYFLFLRRDLKAPSRAFRAYVSRVCLQDQHYYSYVELPLACQGGRYGLIQAAAVATSKEVARGDVLFAAFSSVAPPTVDWPLSASTGASGTSVLCAFPLDEVDQLANYTRDACYTREGRAENGTKVADIAYDVLSDCAQLPVDTPDAFPCGSDHTPSPMVSCVPLEATPILELPGVQLTAVAVTMEDGHTIAFLGDSQGQLHRVYLGPGRSAAPYSKQSIQPGSPVNRDLTFDGTFEHLYVATQTTLVKVPVAPCAQHLDCDSCLAHRDPYCGWCVLLGRCSRRSECSRDQGPEQWLWSFQPELGCLR
modifications: biotin on the Avi-tag (BirA, in vitro)
notes: as for B8

Source: publication PMC10206189, “Nanobody inhibitors of Plexin-B1 identify allostery in plexin–semaphorin interactions and signaling” (The Journal of Biological Chemistry, 2023)
